This passage reports Kd results from article PMC2192386.

As a reminder, the Kd is the constant that tells how readily two partners part at equilibrium. Low values mean higher affinity, high ones lower affinity.

Assay [1] addresses N-RAP-IB (the region of N-RAP between the LIM domain and the nebulin-like repeats). Description: ELISA. (In general: An ELISA detects its analyte on a solid surface through an enzyme-linked reagent.)
The target of assay [2] is N-RAP-NH (the NH2-terminal half of N-RAP including the LIM domain). Description: ELISA.

B1: muscle LIM protein (MLP), rat, histidine-tagged, full length (natural protein)
chain: MPNWGGGAKCGACDKTVYHAEEIQCNGRSFHKTCFHCMACRKALDSTTVAAHESEIYCKVCYGRKYGPKGIGFGQGAGCLSTDTGEHLGLQFQQSPKPARAATTSNPSKFSAKFGESEKCPRCGKSVYAAEKVMGGGKPWHKTCFPCAICGKSLESTNVTDKDGELYCKVCYAKNFGPTGIGFGGLTHQVEKKE
On to B1, for which the figures for the Kd in assay [1] and in assay [2] were 17 nM and 8 nM, respectively.
